Paper PMC3783171, “Sulfolobus chromatin proteins modulate strand displacement by DNA polymerase B1”

Assays:
Sso7d = molecular target: T1, Sso7d (Sulfolobus solfataricus, UniProt P39476 1-64); test: EMSA; apparent Kd; 4 mM Mg2+, 25 C; EMSA: 50 mM Tris-HCl pH 8.0, 2 mM beta-mercaptoethanol, 0.1 mg/ml BSA, 4 mM MgCl2, 5% glycerol, 2 nM probe, 10 min at 25 C (room temperature), 5% PAGE in 0.1x TBE; Tm: 10 mM potassium phosphate pH 7.0, 20-90 C; conditions: protein: recombinant, blunt
T1 sequence: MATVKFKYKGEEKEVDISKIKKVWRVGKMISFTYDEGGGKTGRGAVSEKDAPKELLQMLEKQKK

Cren7 [1] = molecular target: T2, Cren7 (Sulfolobus solfataricus, UniProt Q97ZE3 1-60); test: EMSA; 4 mM Mg2+, 25 C; EMSA: 50 mM Tris-HCl pH 8.0, 2 mM beta-mercaptoethanol, 0.1 mg/ml BSA, 4 mM MgCl2, 5% glycerol, 2 nM probe, 10 min at 25 C (room temperature), 5% PAGE in 0.1x TBE; Tm: 10 mM potassium phosphate pH 7.0, 20-90 C; conditions: protein: recombinant; label: 32P on D30; blunt
T2 sequence: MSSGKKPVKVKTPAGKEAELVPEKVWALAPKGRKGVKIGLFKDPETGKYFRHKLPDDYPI

Cren7 [2] = molecular target: T2, Cren7; test: thermal denaturation (A260); EMSA: 50 mM Tris-HCl pH 8.0, 2 mM beta-mercaptoethanol, 0.1 mg/ml BSA, 4 mM MgCl2, 5% glycerol, 2 nM probe, 10 min at 25 C (room temperature), 5% PAGE in 0.1x TBE; Tm: 10 mM potassium phosphate pH 7.0, 20-90 C; conditions: protein: recombinant; blunt

B1: 30-bp dsDNA (D30/Com30) (dsDNA)
DNA 1: TGCTTCCTTCAATGTGCTGGGATCCTACAA
DNA 2: TTGTAGGATCCCAGCACATTGAAGGAAGCA
Sso7d; label: 32P on D30
  Kd: 150 nM
Cren7 [1]
  binding result: binds

B2: 15-bp dsDNA (D15/Com15) (dsDNA)
DNA 1: TGCATCCTTCAAGAC
DNA 2: GTCTTGAAGGATGCA
Cren7 [2]
  binding result: binds

B3: 30-bp RNA:DNA hybrid (R30/Com30) (DNA:RNA)
RNA: UGCUUCCUUCAAUGUGCUGGGAUCCUACAA
DNA: B1 DNA 2
modifications: R30 strand is RNA
Sso7d; label: 32P on R30
  Kd: 500 nM
